Measured values reported in US20200347130A1 (JIANGSU HENGRUI MEDICINE, published 2020).

T1: Biotinylated CD96 antigen (human, UniProt P40200-2 22-503, limits assumed, biotinylated)
T1 sequence (looked up): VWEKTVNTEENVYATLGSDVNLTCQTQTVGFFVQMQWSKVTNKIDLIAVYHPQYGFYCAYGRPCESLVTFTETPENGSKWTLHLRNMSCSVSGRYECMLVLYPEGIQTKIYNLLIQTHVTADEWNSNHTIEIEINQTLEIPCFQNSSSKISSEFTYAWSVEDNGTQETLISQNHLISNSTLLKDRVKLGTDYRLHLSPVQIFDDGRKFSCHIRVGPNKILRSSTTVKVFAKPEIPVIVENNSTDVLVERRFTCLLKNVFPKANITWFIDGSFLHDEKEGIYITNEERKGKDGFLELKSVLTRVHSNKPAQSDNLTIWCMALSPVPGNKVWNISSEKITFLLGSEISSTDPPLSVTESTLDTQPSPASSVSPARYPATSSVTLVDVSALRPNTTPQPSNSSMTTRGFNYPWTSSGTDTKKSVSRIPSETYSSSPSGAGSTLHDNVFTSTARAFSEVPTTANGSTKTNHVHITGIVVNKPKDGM

T2: CD96 epitope peptide #3 IAVYHPQYGFYCAYGRPCES (47-66) (human)
T2 construct: also called 3# peptides; #3 antigen fragment
T2 peptide: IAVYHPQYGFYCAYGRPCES


Columns and labels:
[1] = molecular target: T1, Biotinylated CD96 antigen; experiment: competition ELISA, antibody B premixed with biotinylated CD96; competitor (coated antibody A): h1721-003
Protocol: (§1) Competitive assays of different antibodies binding to CD96 protein were used to classify binding epitopes of the antibodies. The specific experimental methods are as follows:
(§2) Antibody A was diluted to a concentration of 2 μg/ml with PBS buffer (Shanghai Yuanpei Biotechnology Co., Ltd. Cat No. B320), pH 7.4, added to a 96-well microtiter plate (Corning, Cat No. CLS3590-100EA) at a volume of 50 μl/well, and coated at 4° C. overnight. After discarding the liquid, 250 μl/well of 5% skim milk (BD skim milk, Cat No. 232100) blocking solution diluted with PBS was added, and the plate was incubated at 37° C. for 3 hours. After blocking, the blocking solution was discarded, and the plate was washed 5 times with PBST buffer (pH 7.4 PBS containing 0.05% tween-20) and stored for later use. Antibody B was diluted to 40 μg/ml and 8 μg/ml with 1% BSA, and Biotinylated CD96 antigen was simultaneously diluted to 4 μg/mL. Subsequently, antibody B and antigen were mixed in a 1:1 volume ratio, pre-incubated at 37° C. for 45 minutes, added into the enzyme plate coated with antibody A, thus incubating the plate in an incubator at 37° C. for 1.5 hours. After incubation, the plate was washed for 5 times with PBST, and 50 μl/well of HRP-labeled streptavidin (Sigma, Cat No. 52438) diluted with sample dilution was added, followed by incubating the plate at 37° C. for 1 hour. After washing the plate 5 times with PBST, 50 μl/well of TMB chromogenic substrate (KPL, Cat No. 52-00-03) was added for color development, followed by adding 50 μl/well of 1M H₂SO₄ to stop the reaction. The absorption value was read at 450 nm with a NOVOStar microplate reader, and the OD value was used to determine whether A and B CD96 antibodies compete with each other. Antibodies that compete with each other fall into the same class of antibodies, otherwise belong to different classes of antibodies (see FIG. 3 and Table 18).

[2] = molecular target: T1, Biotinylated CD96 antigen; experiment: competition ELISA, antibody B premixed with biotinylated CD96; competitor (coated antibody A): ch1720
Protocol: as §1, §2

[3] = molecular target: T1, Biotinylated CD96 antigen; experiment: competition ELISA: antibody B pre-incubated with biotinylated CD96 antigen, added to a plate coated with antibody A, HRP-streptavidin, OD450; competitor: coated h1721-003
Protocol: as §1, §2

[4] = molecular target: T2, CD96 epitope peptide #3 …; experiment: FACS on CD96-CHOs cells after pre-incubation of the antibody with the peptide; a fall of the MFI against antibody alone shows that the peptide occupies the antibody
Protocol: In order to verify that the binding of the antibody to CD96 protein polypeptide fragment is specific, we designed the following FACS for verification. While polypeptide fragments were incubated and bound to an antibody, epitopes of the antibody binding to CD96 protein were occupied, and then the signal of the antibody binding to CD96 protein on the cell surface decreased. The specific experimental methods are as follows:
The antibody samples were diluted to 1.2 μg/mL with 1% BSA, and the peptides were diluted to 40 μg/mL synchronously. The peptides and antibody sample were mixed at a volume ratio of 1:1 and pre-incubated at 37° C. for 90 minutes. CD96-CHOs cells were collected and washed once in PBS, then dispensed according to 0.5×10⁶/test. The cells with 100 μL of peptide-antibody mixture were resuspended, incubated at 4° C. for 1 hour, followed by washing 3 times with 1% BSA. Cells were resuspended with 100 μL dilution (1:400, 1:40, 1:100) of Alexa Fluor 488 anti-human IgG Fc (thermofisher, A-11013), PE goat anti-mouse IgG (Biolegend, Cat No. 405307), or PE goat anti-Rat IgG (Biolegend, Cat No. 405406), incubated at 4° C. for 40 minutes, followed by washing 3 times with 1% BSA. The cells were resuspended with 200 μL of 1% BSA, MFI of each sample was read on a flow cytometer BD FACSCanto II, and the data were analyzed with GraphPad Prism 5 to make a histogram. MFI difference between the sample without polypeptides incubation and the one incubated with polypeptides was used to determine the antigenic epitope recognized by the CD96 antibody.

| competition (percent) [1] | competition (percent) [2] | IC50 (read off the curve) [3] | binding result [4] | Binder |
| --- | --- | --- | --- | --- |
| 103% | 103% | ~0.4 nM | – | h1718-012 (antibody, V domains shown, Only variable regions are tied to this name) VH: EVQLVQSGAEVKKPGASVKVSCKASGYTITDYNMNWVRQAPGQRLEWIGVINPSYGITDYNQNFKDRVTITVDTSASTAYMELSSLRSEDTAVYYCAIQLRLPGYFDVWGQGTTVTVSS VL: DIQMTQSPSSLSASVGDRVTITCKASQDINQYLNWFQQKPGKAPKTLIYRANRLVDGVPSRFSGSGSGQDYTLTISSLQPEDFATYYCLKYDEFPYTFGGGTKVEIK |
| 98.7% | 100% | – | – | ch1720 (antibody, human IgG4 S228P, kappa, V domains shown, also called chimeric antibody corresponding to m1720) VH: EFQLQQSGPELVKPGASVKISCKASAYSLTDYNMNWVKQSNGKSLEWIGVINPSYGISSYNQKFKGKATLTVDQSSSTAYMHLNSLTSEDSAVYYCARQLRLPGYFDVWGTGTTVTVSS VL: DIKMTQSPSSKNASLGERVTITCKASQDINSYLNWFQQKPGKSPKTLIYRASRLVDGVPSRFSGSGSGQDYSLTISSLEYEDMGIYYCLKYDEFPYTFGGGTKLEIKR |
| – | – | – | binds | ch1718 (antibody, human IgG4 S228P, kappa, V domains shown, also called chimeric antibody corresponding to m1718) VH: EFQLQQSGPELVKPGASVKISCKASAYSITDYNMNWVKQSNGKSLEWIGVINPSYGITDYNQNFKDKATLTVDQSSSTAYMQLNSLTSEDSAVYYCAIQLRLPGYFDVWGTGTTVIVSS VL: DIKMTQSPSSMYASLGERVTITCKASQDINNYLNWFQQKPGKSPKTLIYRANRLVDGVPSRFSGSGSGQDYSLTISSLEYEDMGIYYCLKYDEFPYTFGGGTKVEIKR |
| 100% | 92.6% | ~0.4 nM | – | h1721-003 (antibody, V domains shown, Only variable regions are tied to this name; also called M721-003) VH: EVTLKESGPVLVKPTETLTLTCTVSGFSLSSYGVNWIRQPPGKALEWLGVIWGDGSTNYHSALISRLTISKDTSKSQVVLTLTNMDPVDTATYYCAKNYFYGSRYGYAMDSWGQGTTVTVSS VL: DIQMTQSPSSLSASVGDRVTITCRASENIYSSLAWYQQKPGKAPKLLIYNAKTLIEGVPSRFSGSGSGTDFTLTISSLQPEDFATYYCQHHYGTPYTFGGGTKVEIK |
| -8.5% | -11.5% | – | – | h1722-010 (antibody, V domains shown, Only variable regions are tied to this name; also called M722-010) VH: EVQLVQSGAEVKKPGSSVKVSCKASGGTFSDYWMHWVRQAPGQGLEWIGMLHPNSGTTSFNEKFKIRVTITADKSTSTAYMELSSLRSEDTAVYYCASDYSGPFAYWGQGTLVTVSS VL: DIQLTQSPSSLSASVGDRVTITCSASSSVNYIHWYQQKPGKAPKRWIFDTSKLASGVPSRFSGSGSGTDYTLTISSLQPEDFATYYCQQWRSNPLTFGQGTKLEIK |
| – | – | ~0.4 nM | – | h1719-010 (antibody, V domains shown, Only variable regions are tied to this name) VH: EVTLKESGPVLVKPTETLTLTCTVSGFSLSSYGVSWVRQPPGKGLEWLGVIWGDGNTNYHSVLISRLTISKDTSKSQVVLTLTNMDPVDTATYYCAKQNYYGSRYGYPIDYWGQGTTVTVSS VL: DIQMTQSPSSVSASVGDRVTITCKATQDVGTAVAWYQQKPGKAPKLLIYWASTRHTGVPSRFSGSGSGTDFTLTISSLQPEDFATYYCQQYGSSVLTFGGGTKVEIK |
| 84.6% | 67.7% | – | – | h1719-014 (antibody, V domains shown, Only variable regions are tied to this name; also called M719-014) VH: EVTLKESGPVLVKPTETLTLTCTVSGFSLSSYGVSWVRQPPGKGLEWLGVIWGDGNTNYHSVLISRLTISKDTSKSQVVLTLTNMDPVDTATYYCAKNYYYGSRYGYPLDYWGQGTTVTVSS VL: DIQMTQSPSSVSASVGDRVTITCKATQDVGTAVAWYQQKPGKSPKLLIYWASTRHTGVPERFSGSGSGTDFTLTISSLQPEDFATYFCQQYGSSVLTFGGGTKVEIK |
| – | – | – | binds | ch1719 (antibody, human IgG4 S228P, kappa, V domains shown, also called chimeric antibody corresponding to m1719) VH: QVQLKESGPGLVAPSQSLSITCTVSGFSLISYGVSWVRQPPGKGLEWLGVIWGDGNTNYHSVLISRLSIRKDDSKSQVFLKLNSLQTDDTATYYCAKNNYYGSRYGYPMDYWGQGTSVTVSS VL: DIVMTQSHKFMSTSVGDRVSITCKATQDVGTAVAWYQQKPGHSPKLLIYWASTRHTGVPERFTGSGSGTDFTLTIDNVQSEDLADYFCQQYGSSVLTFGAGTKVELRR |
| – | – | – | binds | ch1721 (antibody, human IgG4 S228P, kappa, V domains shown, also called chimeric antibody corresponding to m1721) VH: QVQLKESGPGLVAPSQSLSITCTVSGFSLISYGVNWVRQPPGKGLEWLGVIWGDGSTNYHSALISRLSISKDDSKSQVFLNLNSLQTDDTATYYCAKNYFYGSRYGYAMDSWGQGISVTVSS VL: DIQMTQSPASLSAAVGETVTITCRASENIYSSLAWYQQKQGKSPQLLVYNAKTLIETVASRFSGSGSGTQYSLKINSLQPEDFGSFYCQHHYGTPYTFGGGTKLEIKR |
